# From patent US7597889
# Key:
# human FcγRI (human) [1] = target: human FcγRI (human) (UniProt P12314); assay: fluorescent staining of FcγRI transfectants, flow cytometry
# human FcγRI (human) [2] = target: human FcγRI (human) (UniProt P12314); assay: rosetting after centrifuging RBC coated with 1 µg/ml Fog-1 G1 together with B2KA cells
# human FcγRI (human) [3] = target: human FcγRI (human) (UniProt P12314); assay: rosetting of FcγRI-bearing B2KA cells by R2R2 RBC coated with Ab; coating concentration
# FcγRIIa 131H/H (human) = FcγRIIa 131H/H (human) (UniProt P12318); assay: staining of 3T6+FcγRIIa 131H/H cells with complexed Ab (summary)
# Sequence of UniProt P12318 (P12318 34-317): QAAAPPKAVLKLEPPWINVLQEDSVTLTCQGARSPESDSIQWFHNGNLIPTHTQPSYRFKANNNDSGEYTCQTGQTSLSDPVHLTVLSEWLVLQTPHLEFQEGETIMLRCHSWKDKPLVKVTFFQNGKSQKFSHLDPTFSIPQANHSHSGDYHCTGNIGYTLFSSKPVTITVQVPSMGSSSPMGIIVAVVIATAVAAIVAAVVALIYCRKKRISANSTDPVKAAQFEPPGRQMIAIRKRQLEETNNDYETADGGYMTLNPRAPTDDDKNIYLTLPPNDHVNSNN
# Sequence of UniProt P12314 (P12314 16-374): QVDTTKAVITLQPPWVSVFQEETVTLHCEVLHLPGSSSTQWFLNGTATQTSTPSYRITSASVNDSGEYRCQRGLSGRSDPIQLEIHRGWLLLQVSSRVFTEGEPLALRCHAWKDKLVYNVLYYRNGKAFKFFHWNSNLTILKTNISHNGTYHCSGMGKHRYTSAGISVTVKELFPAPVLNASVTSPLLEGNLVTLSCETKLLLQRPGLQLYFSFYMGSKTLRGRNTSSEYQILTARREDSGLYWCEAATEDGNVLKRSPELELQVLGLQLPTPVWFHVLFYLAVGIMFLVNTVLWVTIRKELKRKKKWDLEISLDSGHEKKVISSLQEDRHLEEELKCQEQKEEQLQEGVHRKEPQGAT
fold reduction of binding against the parent subclass (human FcγRI (human) [1]) [fold],Substance,also measured
> 10000,CAMPATH-1 G1Δb (antibody),–
> 10000,Fog-1 G1Δab (antibody),–
–,Fog-1 G1 (antibody),percent of B2KA cells with rosettes (human FcγRI (human) [2]): 95%; EC50 (human FcγRI (human) [3]): 0.1 µg/mL
–,Fog-1 G1Δa (antibody),EC50 (human FcγRI (human) [3]): 0.1 µg/mL
> 10000,CAMPATH-1 G4Δb (antibody),–
> 10000,Fog-1 G4Δb (antibody),–
> 10000,Fog-1 G1Δb (antibody),fold lower activity than IgG1 (FcγRIIa 131H/H (human)): 50 fold
> 10000,Fog-1 G4Δc (antibody),–
> 10000,CAMPATH-1 G1Δac (antibody),–
> 10000,Fog-1 G1Δc (antibody),fold lower activity than IgG1 (FcγRIIa 131H/H (human)): 10 fold
> 10000,CAMPATH-1 G1Δc (antibody),–
> 10000,CAMPATH-1 G1Δab (antibody),–
> 10000,CAMPATH-1 G4Δc (antibody),–
> 10000,Fog-1 G1Δac (antibody),–
